Results on two molecules are retold here after paper PMC6553756 (PLoS ONE, 2019).

In one assay the target is T1, recombinant mouse PrP (Mus musculus, UniProt P04925).
T1 construct: also called rMoPrP
Kind of assay: ELISA.

The target of assay [1] is T2, cellular prion protein (PrP^C) expressed in the brain of mock-infected mice (Mus musculus, mouse strain not shown, UniProt P04925).
T2 construct: source: endogenous, frozen brain sections of mock-infected mice
As to the kind of experiment: immunostaining of cells or tissue. To be noted: one partner purified.

Assay [2] has as its target abnormal isoform prion protein (PrP^Sc) in the brain of Chandler prion-infected mice (Mus musculus, brain, Chandler prion …, UniProt P04925). Kind of assay: immunostaining of cells or tissue. To be noted: one partner purified.

T1 sequence (P04925 23-230): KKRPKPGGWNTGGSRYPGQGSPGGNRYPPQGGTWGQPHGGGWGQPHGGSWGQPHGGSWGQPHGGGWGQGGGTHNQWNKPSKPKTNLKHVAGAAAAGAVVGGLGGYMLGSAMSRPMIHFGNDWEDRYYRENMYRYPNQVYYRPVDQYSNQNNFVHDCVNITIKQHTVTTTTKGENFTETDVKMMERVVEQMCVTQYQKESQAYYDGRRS
T2 sequence (P04925 23-230): as above
abnormal isoform prion protein (PrP^Sc) in the brain of Chandler prion-infected mice, sequence (P04925 23-230): as above

B1: authentic anti-PrP monoclonal antibody 44B1 (IgG-44B1) (antibody, V domains shown)
VH: DVKLVESGEGLVKPGGSLKLSCAASGITFSRYAMSWVRQTPEKRLEWVAYISSGGDYINYADTVKGRFTISRDNARNTLYLQMSSLKSEDTAMYYCTRVTPYWYFDVWGTGTTVTVSS
VL: DIVLTQSPASLGVSLGQRATISCRASESVDSYGNSFMHWYQQKPGQPPKVLIYRASNRESGIPARFSGSGSRTDFTLTINPVEADDVATYYCQQSNEDPYTFGGGTKLEIK
notes: also called mAb 44B1; source: hybridoma, purified IgG; copies: 2 + 2
For the molecule B1, the binding result (with recombinant mouse PrP (both partners purified); in assay [1]; in assay [2]) was “binds” in each case.

B2: recombinant Fab of mAb 44B1 (rFab-44B1) (Fab, V domains shown)
VH: DVKLVESGEGLVKPGGSLKLSCAASGITFSRYAMSWVRQTPEKRLEWVAYISSGGDYINYADTVKGRFTISRDNARNTLYLQMSSLKSEDTAMYYCTRVTPYWYFDVWGTGTTVTVSS
VL: DIVLTQSPASLGVSLGQRATISCRASESVDSYGNSFMHWYQQKPGQPPKVLIYRASNRESGIPARFSGSGSRTDFTLTINPVEADDVATYYCQQSNEDPYTFGGGTKLEIK
notes: source: HEK293T, transfected (IRES plasmid), culture supernatant
Take B2: in the assay with recombinant mouse PrP (one partner purified), the binding result is given as “binds”.
